One molecule from publication PMC7865940, “Effect of DNA Glycosylases OGG1 and Neil1 on Oxidized G-Rich Motif in the KRAS Promoter” can be followed below.

The data set has as its target OGG1 (hOGG1, 8-oxoguanine glycosylase) (UniProt O15527 1-345). As to the kind of experiment: EMSA; two retarded bands (1:1 and 1:2 suggested); not cleaved; EMSA buffer A: 50 mM Tris-HCl pH 7.4, 100 mM NaCl (duplex) or 100 mM KCl (G4), 1 mM EDTA, 5 mM NaF, 1 mM Na3VO4, 1 mM DTT, 2.5 ng/uL poly[dI-dC], 8% glycerol; 8 nM DNA, 0/1/5 uM protein (also given as 1 and 5 ug), 15 min; native 5% PAGE in TBE at 20 C (Results give buffer B for the G4 incubation). Particulars: protein: recombinant; tags: N-terminal His; label: 5'-32P on G-rich strand; annealed with complementary strand in 100 mM NaCl. (In EMSA bound probe runs differently from free probe, usually more slowly.)

OGG1 (hOGG1, 8-oxoguanine glycosylase), sequence (O15527 whole entry): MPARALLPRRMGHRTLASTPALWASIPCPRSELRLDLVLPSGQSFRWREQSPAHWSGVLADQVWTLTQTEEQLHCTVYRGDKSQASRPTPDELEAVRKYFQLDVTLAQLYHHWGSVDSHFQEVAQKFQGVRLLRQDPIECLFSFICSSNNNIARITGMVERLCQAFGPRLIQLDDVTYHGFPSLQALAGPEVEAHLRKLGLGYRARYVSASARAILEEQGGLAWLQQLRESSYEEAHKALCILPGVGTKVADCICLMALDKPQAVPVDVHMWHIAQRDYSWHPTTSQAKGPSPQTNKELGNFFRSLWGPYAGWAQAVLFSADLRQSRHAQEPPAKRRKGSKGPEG

B1: 32R wild-type duplex (dsDNA)
DNA 1: AGGGCGGTGTGGGAAGAGGGAAGAGGGGGAGG
DNA 2: CCTCCCCCTCTTCCCTCTTCCCACACCGCCCT
Consider B1, for which the binding result is given as “binds”.
